These results are taken from paper PMC6377682 (2019).

Sequences and labels used below:
B1: human ASPP2^920-1120 [human] / PP1α^301-330 C-tail peptide [human] (parent complex)
chain 1: MRVKFNPLALLLDSSLEGEFDLVQRIIYEVDDPSLPNDEGITALHNAVCAGHTEIVKFLVQFGVNVNAADSDGWTPLHCAASCNNVQVCKFLVESGAAVFAMTYSDMQTAADKCEEMEEGYTQCSQFLYGVQEKMGIMNKGVIYALWDYEPQNDDELPMKEGDCMTIIHREDEDEIEWWWARLNDKEGYVPRNLLGLYPRI
chain 2: KNKGKYGQFSGLNPGGRPITPPRNSAKAKK
B2: human ASPP2^920-1120 [human] / human PP1β^6-327 [human] (parent complex)
chain 1: B1 chain 1
chain 2: LNVDSLITRLLEVRGCRPGKIVQMTEAEVRGLCIKSREIFLSQPILLELEAPLKICGDIHGQYTDLLRLFEYGGFPPEANYLFLGDYVDRGKQSLETICLLLAYKIKYPENFFLLRGNHECASINRIYGFYDECKRRFNIKLWKTFTDCFNCLPIAAIVDEKIFCCHGGLSPDLQSMEQIRRIMRPTDVPDTGLLCDLLWSDPDKDVQGWGENDRGVSFTFGADVVSKFLNRHDLDLICRAHQVVEDGYEFFAKRQLVTLFSAPNYCGEFDNAGGMMSVDETLMCSFQILKPSEKKAKYQYGGLNSGRPVTPPRTANPPKKR
B3: PP1α^301-330 C-tail peptide [human] / human ASPP2^920-1120 [human] (parent complex)
chain 1: B1 chain 2
chain 2: B1 chain 1
B4: human ASPP1^882-1090 [human] / human PP1β^6-327 [human] (parent complex)
chain 1: LRVRFNPLALLLDASLEGEFDLVQRIIYEVEDPSKPNDEGITPLHNAVCAGHHHIVKFLLDFGVNVNAADSDGWTPLHCAASCNSVHLCKQLVESGAAIFASTISDIETAADKCEEMEEGYIQCSQFLYGVQEKLGVMNKGVAYALWDYEAQNSDELSFHEGDALTILRRKDESETEWWWARLGDREGYVPKNLLGLYPRIKPRQRTLA
chain 2: B2 chain 2

Variants of B1 are the subject of one test. In words: ITC. In general terms: Isothermal titration calorimetry measures the heat released or taken up as one component is titrated into another.
As usually defined, the Kd is a measure of binding affinity in units of concentration. Consider chain 1 D172G, chain 1 E173P, for which the equilibrium dissociation constant (Kd) was found to be 172 nM.

Variants of B2 are the subject of a further test. In words: BLI.
Regarding chain 1 D174S, the equilibrium dissociation constant (Kd) amounted to 136 nM. For the variant chain 1 E171K, chain 1 D174S, the equilibrium dissociation constant (Kd) was 178 nM.

The next test covers variants of B3. In words: ITC.
Regarding chain 1 K27A, the dissociation constant (Kd) worked out at 520 nM. Take chain 1 K30A: the Kd was 326 nM.

For the variant chain 1 K29A, the dissociation constant Kd turned out to be 342 nM.

Variants of B4 are the subject of another test. In words: BLI. On the technique in general: BLI is a label-free optical method that tracks binding on a fibre tip over time.
With chain 1 K171E, chain 1 S174D, the equilibrium dissociation constant (Kd) was 84.4 nM.
